B1: OR10K2 (parent)
chain: SLARLQQLLFVIFLLLYLFTLGTN
B2: ANKRD40 (parent)
chain: SLRENDFIEIELDRQELTYQELLR

Variants of: B1
Assay: protein stability index of a GFP-peptide fusion (GPS, HEK-293T) (PSI 1-6); higher = more stable
Details: c terminus: a fixed tail appended
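Note: lentivirally expressed fusions sorted by FACS into six bins by GFP to DsRed ratio, PSI derived from sequencing read proportions per bin multiplied by bin number.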

Question: With SLARLQQLLFVIFLLLYSFTLGTN [L18S] as the variant, how does the protein stability index read?
Answer: 2.25

Question: For SLARLQQLLFVIFLLLYLITLGTN [F19I], which protein stability index is on record?
Answer: 1.51

Question: Which protein stability index does the source give for SLARLQQLLFVIFLLLYLLTLGTN [F19L] here?
Answer: 2.05

Question: For SLARLQQLLFVIFLLLYLMTLGTN [F19M], which protein stability index is on record?
Answer: 2.17

Question: For SLARLQQLLFVIFLLLYLFFLGTN [T20F], which protein stability index is on record?
Answer: 3.51

Question: Which protein stability index does the source give for SLARLQQLLFVIFLLLYLFILGTN [T20I] here?
Answer: 2.11

Question: For SLARLQQLLFVIFLLLYLFLLGTN [T20L], which protein stability index is on record?
Answer: 1.5

Question: With SLARLQQLLFVIFLLLYLFMLGTN [T20M] as the variant, how does the protein stability index read?
Answer: 1.29

Question: For SLARLQQLLFVIFLLLYLFNLGTN [T20N], which protein stability index is on record?
Answer: 3.75

Question: For SLARLQQLLFVIFLLLYLFQLGTN [T20Q], which protein stability index is on record?
Answer: 1.45

Question: For SLARLQQLLFVIFLLLYLFRLGTN [T20R], which protein stability index is on record?
Answer: 2.2

Question: With SLARLQQLLFVIFLLLYLFTCGTN [L21C] as the variant, how does the protein stability index read?
Answer: 3.39

Question: Which protein stability index does the source give for SLARLQQLLFVIFLLLYLFTFGTN [L21F] here?
Answer: 3.52

Question: For SLARLQQLLFVIFLLLYLFTIGTN [L21I], which protein stability index is on record?
Answer: 2.08

Question: With SLARLQQLLFVIFLLLYLFTNGTN [L21N] as the variant, how does the protein stability index read?
Answer: 4.16

Question: For SLARLQQLLFVIFLLLYLFTSGTN [L21S], which protein stability index is on record?
Answer: 2.34

Question: With SLARLQQLLFVIFLLLYLFTTGTN [L21T] as the variant, how does the protein stability index read?
Answer: 3.5

Question: With SLARLQQLLFVIFLLLYLFTVGTN [L21V] as the variant, how does the protein stability index read?
Answer: 2.08

Question: For SLARLQQLLFVIFLLLYLFTYGTN [L21Y], which protein stability index is on record?
Answer: 1.62

Question: With SLARLQQLLFVIFLLLYLFTLCTN [G22C] as the variant, how does the protein stability index read?
Answer: 2.65

Question: For SLARLQQLLFVIFLLLYLFTLHTN [G22H], which protein stability index is on record?
Answer: 2.3

Question: Which protein stability index does the source give for SLARLQQLLFVIFLLLYLFTLKTN [G22K] here?
Answer: 2.48

Question: With SLARLQQLLFVIFLLLYLFTLNTN [G22N] as the variant, how does the protein stability index read?
Answer: 3.78

Question: For SLARLQQLLFVIFLLLYLFTLWTN [G22W], which protein stability index is on record?
Answer: 2.11

Question: For SLARLQQLLFVIFLLLYLFTLGCN [T23C], which protein stability index is on record?
Answer: 4.22

Question: For SLARLQQLLFVIFLLLYLFTLGDN [T23D], which protein stability index is on record?
Answer: 1.44

Question: Which protein stability index does the source give for SLARLQQLLFVIFLLLYLFTLGHN [T23H] here?
Answer: 1.75

Question: With SLARLQQLLFVIFLLLYLFTLGRN [T23R] as the variant, how does the protein stability index read?
Answer: 1.53

Question: Which protein stability index does the source give for SLARLQQLLFVIFLLLYLFTLGSN [T23S] here?
Answer: 1.86

Question: Which protein stability index does the source give for SLARLQQLLFVIFLLLYLFTLGTA [N24A] here?
Answer: 2.11

Question: With SLARLQQLLFVIFLLLYLFTLGTF [N24F] as the variant, how does the protein stability index read?
Answer: 2.87

Question: With SLARLQQLLFVIFLLLYLFTLGTI [N24I] as the variant, how does the protein stability index read?
Answer: 2.75

Question: For SLARLQQLLFVIFLLLYLFTLGTL [N24L], which protein stability index is on record?
Answer: 3.23

Question: For SLARLQQLLFVIFLLLYLFTLGTT [N24T], which protein stability index is on record?
Answer: 2.4

Question: Which protein stability index does the source give for SLARLQQLLFVIFLLLYLFTLGTW [N24W] here?
Answer: 1.99

Variants of: B2
Assay: as above
Details: c terminus: a fixed tail appended

Question: With ALRENDFIEIELDRQELTYQELLR [S1A] as the variant, how does the protein stability index read?
Answer: 2.82

Question: For CLRENDFIEIELDRQELTYQELLR [S1C], which protein stability index is on record?
Answer: 3.07

Question: With DLRENDFIEIELDRQELTYQELLR [S1D] as the variant, how does the protein stability index read?
Answer: 3.12

Question: With ELRENDFIEIELDRQELTYQELLR [S1E] as the variant, how does the protein stability index read?
Answer: 3.41

Question: With FLRENDFIEIELDRQELTYQELLR [S1F] as the variant, how does the protein stability index read?
Answer: 2.29

Question: With GLRENDFIEIELDRQELTYQELLR [S1G] as the variant, how does the protein stability index read?
Answer: 2.77

Question: Which protein stability index does the source give for HLRENDFIEIELDRQELTYQELLR [S1H] here?
Answer: 3.26

Question: For ILRENDFIEIELDRQELTYQELLR [S1I], which protein stability index is on record?
Answer: 2.34

Question: Which protein stability index does the source give for KLRENDFIEIELDRQELTYQELLR [S1K] here?
Answer: 3.23

Question: With LLRENDFIEIELDRQELTYQELLR [S1L] as the variant, how does the protein stability index read?
Answer: 2.84

Question: With MLRENDFIEIELDRQELTYQELLR [S1M] as the variant, how does the protein stability index read?
Answer: 2.66

Question: With NLRENDFIEIELDRQELTYQELLR [S1N] as the variant, how does the protein stability index read?
Answer: 3.31

Question: For PLRENDFIEIELDRQELTYQELLR [S1P], which protein stability index is on record?
Answer: 3.26

Question: For QLRENDFIEIELDRQELTYQELLR [S1Q], which protein stability index is on record?
Answer: 3.44

Question: Which protein stability index does the source give for RLRENDFIEIELDRQELTYQELLR [S1R] here?
Answer: 3.07

Question: For TLRENDFIEIELDRQELTYQELLR [S1T], which protein stability index is on record?
Answer: 3.38

Question: Which protein stability index does the source give for VLRENDFIEIELDRQELTYQELLR [S1V] here?
Answer: 3.17

Question: For WLRENDFIEIELDRQELTYQELLR [S1W], which protein stability index is on record?
Answer: 2.26

Question: With YLRENDFIEIELDRQELTYQELLR [S1Y] as the variant, how does the protein stability index read?
Answer: 2.3

Question: For SARENDFIEIELDRQELTYQELLR [L2A], which protein stability index is on record?
Answer: 3.91

Question: Which protein stability index does the source give for SCRENDFIEIELDRQELTYQELLR [L2C] here?
Answer: 2.99

Question: With SDRENDFIEIELDRQELTYQELLR [L2D] as the variant, how does the protein stability index read?
Answer: 3.6

Question: With SERENDFIEIELDRQELTYQELLR [L2E] as the variant, how does the protein stability index read?
Answer: 2.93

Question: For SFRENDFIEIELDRQELTYQELLR [L2F], which protein stability index is on record?
Answer: 2.36

Question: For SGRENDFIEIELDRQELTYQELLR [L2G], which protein stability index is on record?
Answer: 3.02

Question: With SHRENDFIEIELDRQELTYQELLR [L2H] as the variant, how does the protein stability index read?
Answer: 3.01

Question: Which protein stability index does the source give for SIRENDFIEIELDRQELTYQELLR [L2I] here?
Answer: 2.66

Question: Which protein stability index does the source give for SKRENDFIEIELDRQELTYQELLR [L2K] here?
Answer: 3.01

Question: With SMRENDFIEIELDRQELTYQELLR [L2M] as the variant, how does the protein stability index read?
Answer: 3.09

Question: With SNRENDFIEIELDRQELTYQELLR [L2N] as the variant, how does the protein stability index read?
Answer: 2.89

Question: Which protein stability index does the source give for SPRENDFIEIELDRQELTYQELLR [L2P] here?
Answer: 3.49

Question: Which protein stability index does the source give for SQRENDFIEIELDRQELTYQELLR [L2Q] here?
Answer: 3.48

Question: For SRRENDFIEIELDRQELTYQELLR [L2R], which protein stability index is on record?
Answer: 2.8

Question: With SSRENDFIEIELDRQELTYQELLR [L2S] as the variant, how does the protein stability index read?
Answer: 3.2

Question: Which protein stability index does the source give for STRENDFIEIELDRQELTYQELLR [L2T] here?
Answer: 3

Question: With SVRENDFIEIELDRQELTYQELLR [L2V] as the variant, how does the protein stability index read?
Answer: 3.12

Question: Which protein stability index does the source give for SWRENDFIEIELDRQELTYQELLR [L2W] here?
Answer: 2.73

Question: For SYRENDFIEIELDRQELTYQELLR [L2Y], which protein stability index is on record?
Answer: 2.68

Question: With SLAENDFIEIELDRQELTYQELLR [R3A] as the variant, how does the protein stability index read?
Answer: 3.29

Question: Which protein stability index does the source give for SLCENDFIEIELDRQELTYQELLR [R3C] here?
Answer: 3.14

Question: For SLDENDFIEIELDRQELTYQELLR [R3D], which protein stability index is on record?
Answer: 2.9

Question: Which protein stability index does the source give for SLEENDFIEIELDRQELTYQELLR [R3E] here?
Answer: 2.85

Question: With SLFENDFIEIELDRQELTYQELLR [R3F] as the variant, how does the protein stability index read?
Answer: 2.37

Question: Which protein stability index does the source give for SLGENDFIEIELDRQELTYQELLR [R3G] here?
Answer: 3.26

Question: Which protein stability index does the source give for SLHENDFIEIELDRQELTYQELLR [R3H] here?
Answer: 3.08

Question: With SLIENDFIEIELDRQELTYQELLR [R3I] as the variant, how does the protein stability index read?
Answer: 2.9

Question: With SLKENDFIEIELDRQELTYQELLR [R3K] as the variant, how does the protein stability index read?
Answer: 3.23

Question: With SLLENDFIEIELDRQELTYQELLR [R3L] as the variant, how does the protein stability index read?
Answer: 2.29

Question: Which protein stability index does the source give for SLMENDFIEIELDRQELTYQELLR [R3M] here?
Answer: 2.54

Question: Which protein stability index does the source give for SLNENDFIEIELDRQELTYQELLR [R3N] here?
Answer: 3.06

Question: Which protein stability index does the source give for SLPENDFIEIELDRQELTYQELLR [R3P] here?
Answer: 3.52

Question: With SLQENDFIEIELDRQELTYQELLR [R3Q] as the variant, how does the protein stability index read?
Answer: 2.95

Question: With SLSENDFIEIELDRQELTYQELLR [R3S] as the variant, how does the protein stability index read?
Answer: 3.54

Question: For SLTENDFIEIELDRQELTYQELLR [R3T], which protein stability index is on record?
Answer: 2.91

Question: For SLVENDFIEIELDRQELTYQELLR [R3V], which protein stability index is on record?
Answer: 2.44

Question: With SLWENDFIEIELDRQELTYQELLR [R3W] as the variant, how does the protein stability index read?
Answer: 2.26

Question: With SLYENDFIEIELDRQELTYQELLR [R3Y] as the variant, how does the protein stability index read?
Answer: 2.65

Question: Which protein stability index does the source give for SLRANDFIEIELDRQELTYQELLR [E4A] here?
Answer: 2.74

Question: For SLRCNDFIEIELDRQELTYQELLR [E4C], which protein stability index is on record?
Answer: 2.16
